Consider one molecule from paper PMC8113581 (Nature Communications, 2021).

This assay addresses T1, SARS-CoV-2 Spike S1+S2 ECD, his Tag protein (SARS-CoV-2, Wuhan-Hu-1, UniProt P0DTC2).
T1 construct: also called full-length S protein; full-length S-his; source: bought: Sino Biological
Kind of assay: ELISA. The conditions noted are these: both partners purified. Background: ELISA stands for enzyme-linked immunosorbent assay.

B1: P4A1 (antibody, V domains shown)
VH: EVQLVESGGGLIQPGGSLRLSCAASGFIVSSNYMSWVRQAPGKGLEWVSIIYSGGSTFYADSVKGRFTISRDNSKNTLYLQMNSLRVEDTAVYYCARDLQELGSLDYWGQGTLVTVSS
VL: DIQMTQSPSSVSASVGDRVTITCRASQGISSWLAWYQQKPGKAPKLLIYAASSLQSGVPSRFSGSGSGTDFTLTISSLQPEDFATYYCQEANSFPYTFGQGTKLEIK
notes: also called P4A1 (IgG1); IgG1 form P4A1
Turning to B1, the binding result is listed as “binds”.
